# Where a chain is given by its changes, count along the chain named.
# T1: bL4_C36 (biotin-GSGS-C36-NH2, HIV-1 HXB2 Env gp41 HR2 peptide) (HIV-1 (HXB2 strain), N-terminal biotin; C-terminal amide)
# T1 construct: also called C-peptide
# T1 peptide: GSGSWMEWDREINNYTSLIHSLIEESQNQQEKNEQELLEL
# B1: single-chain Alphabody scAB_Env04 (designed binder)
# chain: MGHHHHHHHHHHSSGHIEGRHMSIEEIQKPIATIQETIAWIQKTIYGMTGGSGGGSGMSIEEIQKQIAAIQKQIAAIQKQIYAMTGGSGGGSGGGSGGGSGMSIEEIQKQIRAIFEQIVAICKQIIAMTP
# notes: Soluble construct with N-terminal His10 tag (pET16b)
# B2: single-chain Alphabody scAB_Env03 (designed binder)
# chain: MGHHHHHHHHHHSSGHIEGRHMSIEEIQKPIATIQEAIAWIQKKIYMMTGGSGGGSGGGSGGGSGMSIEEIQKQIAAIQKQIAAIQKQIYAMTGGSGGGSGGGSGGGSGMSIEEIQKQIVAIMEQIVAIVKQISAMTP
# notes: expressed soluble in E. coli with an N-terminal His10 tag; not shown: N-terminal 10-histidine tag from pET16b
# B3: single-chain Alphabody scAB_Env03_PA (designed binder)
# chain: B2 chain with P30A
# notes: Made by the same protocol as the parent (N-terminal His10 tag); The substitution has no printed number
# B4: single-chain Alphabody scAB_Env02 (designed binder)
# chain: B2 chain with T33S, A37L, W40T, K44Y, M47I, V120Q, M123T, V127I, V130S, S134I
# notes: as for B1
# B5: single-chain Alphabody scAB_Env05 (designed binder)
# chain: B2 chain with P30H, T33S, A37Y, K44E, M47R, V120L, V127Y, S134N
# notes: as for B1
# B6: single-chain Alphabody scAB_Env03_KC (designed binder)
# chain: B2 chain with K80C
# modifications: Interchain disulfide between Cys80 of chain 1 and Cys80 of chain 2 (homodimer; paragraph 268, and FIG.11 prints 'scAB_Env03_KC (dimer)').
# notes: also called Env03 Cys-mutant
# Key:
# [1] = target: T1, bL4_C36 (biotin-GSGS-C36-NH2, HIV-1 …); assay: SPR, bL4_C36 on streptavidin chip, Langmuir model
# [2] = target: T1, bL4_C36 (biotin-GSGS-C36-NH2, HIV-1 …); assay: SPR, bL4_C36 immobilized on a streptavidin sensor chip, Alphabody injected at 250 to 7.8 nM, Langmuir model (phase 1)
# [3] = target: T1, bL4_C36 (biotin-GSGS-C36-NH2, HIV-1 …); assay: ELISA, bL4_C36 immobilized on neutravidin-coated plates, detection with Penta-His-HRP antibody, A450nm
# [4] = target: T1, bL4_C36 (biotin-GSGS-C36-NH2, HIV-1 …); assay: ELISA, peptide on neutravidin-coated plate, Penta-His-HRP detection
# [5] = target: T1, bL4_C36 (biotin-GSGS-C36-NH2, HIV-1 …); assay: SPR, two-step model, global KD
# [6] = target: T1, bL4_C36 (biotin-GSGS-C36-NH2, HIV-1 …); assay: SPR, bL4_C36 immobilized on a streptavidin sensor chip, two-step kinetic binding model, global constant of phases 1+2 (KD1*KD2)
# [7] = target: T1, bL4_C36 (biotin-GSGS-C36-NH2, HIV-1 …); assay: SPR, bL4_C36 immobilized on a streptavidin sensor chip, two-step kinetic binding model, phase 1
# [8] = target: T1, bL4_C36 (biotin-GSGS-C36-NH2, HIV-1 …); assay: SPR, two-step model, first fast association phase
# [9] = target: T1, bL4_C36 (biotin-GSGS-C36-NH2, HIV-1 …); assay: SPR, bL4_C36 immobilized on a streptavidin sensor chip, two-step kinetic binding model, phase 2 (dimensionless)
# [10] = target: T1, bL4_C36 (biotin-GSGS-C36-NH2, HIV-1 …); assay: SPR, two-step model, second phase
# [11] = target: T1, bL4_C36 (biotin-GSGS-C36-NH2, HIV-1 …); assay: SPR, bL4_C36 on streptavidin chip; disulfide dimer, bidentate binding
Binder,Kd [1],Kd [2],koff [2],kon [2],EC50 (read off the curve) [3],other results
B1,200 nM,167 nM,0.1 s⁻¹,570000 M⁻¹ s⁻¹,~20 nM,
B2,200 nM,211 nM,,,~5 nM,EC50 [4]: ~6 nM
B3,,,,,,Kd [5]: ~10 nM; Kd [6]: 13 nM; KD (phase 1) [7]: 558 nM; kon [8]: ~100000 M⁻¹ s⁻¹; KD (phase 2) [9]: 0.024 (-); koff [10]: ~0.0001 s⁻¹
B4,,,,,~20 nM,
B5,4000 nM,3930 nM,0.32 s⁻¹,81000 M⁻¹ s⁻¹,~40 nM,
B6,,,,,,Kd [11]: 0.62 nM; koff [11]: 2.4e-05 s⁻¹; kon [11]: 38000 M⁻¹ s⁻¹

# Reference: patent US20140294828A1 (COMPLIX, published 2014)
